Results reported in article PMC5626548.

Columns and labels:
[1] = target: full-length BICD2 F739I (mouse) (UniProt Q921C5); experiment: pull-down
[2] = target: full-length BICD2 I189F (mouse) (UniProt Q921C5); experiment: pull-down
[3] = target: full-length BICD2 N188T (mouse) (UniProt Q921C5); experiment: pull-down
[4] = target: full-length BICD2 S107L (mouse) (UniProt Q921C5); experiment: pull-down
[5] = target: full-length BICD2 (Bicaudal D2), wild type (mouse) (UniProt Q921C5); experiment: pull-down
[6] = target: Rab6a^GTP (Rab6a–Q72L, aa 8–195, KCK motif) linked to liposomes (mouse) (UniProt P35279); experiment: fluorescence intensity of BICD2–GFP on liposomes

Substance | ratio of band intensity, mutant to WT BICD2 (lysate only) [1] | ratio of band intensity, mutant to WT BICD2 (lysate only) [2] | ratio of band intensity, mutant to WT BICD2 (lysate only) [3] | ratio of band intensity, mutant to WT BICD2 (lysate only) [4] | fold increase of the pull-down at the highest Rab6a^GTP concentration [5] [fold] | BICD2 molecules per Rab6a^GTP liposome (molecules per liposome) [6]
cytoplasmic dynein, endogenous in porcine brain lysate (complex) | 1.95 | 1.61 | 2.24 | 2.44 | – | –
dynactin, endogenous in porcine brain lysate (from UniProt A0A287B8J2 1-1281) (complex) | 3.65 | 1.88 | 3.86 | 2.88 | 10 | –
full-length BICD2 (Bicaudal D2), wild type (from UniProt Q921C5 1-820) (natural protein) | – | – | – | – | – | 6.01
